Test results from patent US5279956A, “Activated protein C polypeptides and anti-peptide antibodies, diagnostic methods and systems for inhibiting activated protein C” (The Scripps Research Institute, priority 1991, dated 1994).

Experiments:
[1] = molecular target: T1, APC (Homo sapiens, UniProt P04070); test: Inhibition of APC by recombinant mutant (Arg358)-α1-antitrypsin, time course; assay type: biochemical; details: 18 nM APC and 100 nM α1-AT
T1 construct: begins at amino acid residue position 158 and ends at 419; The light chain is 155 amino acid residues in length; tissue Factor IX concentrate from Immuno AG, Vienna; thrombin from Enzyme Research Laboratories
T1 sequence (P04070 212-461): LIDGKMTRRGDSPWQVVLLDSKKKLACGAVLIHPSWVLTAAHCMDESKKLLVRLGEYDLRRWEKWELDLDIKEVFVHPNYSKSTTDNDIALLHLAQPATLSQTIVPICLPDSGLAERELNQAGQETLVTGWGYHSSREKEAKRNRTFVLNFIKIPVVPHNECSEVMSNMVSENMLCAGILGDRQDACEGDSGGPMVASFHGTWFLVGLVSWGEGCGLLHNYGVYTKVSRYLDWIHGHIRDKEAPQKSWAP
T1 sequence (P04070 43-197): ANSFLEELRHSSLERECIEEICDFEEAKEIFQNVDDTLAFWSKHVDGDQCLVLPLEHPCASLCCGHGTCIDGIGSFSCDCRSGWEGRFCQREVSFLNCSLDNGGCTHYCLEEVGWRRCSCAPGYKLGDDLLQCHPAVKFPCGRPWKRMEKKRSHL
Procedure: Since the number of amino acid residues involved in protease-protease inhibitor complexes is likely to be higher than the number of residues of APC involved in the cleavage of a small chromogenic substrate such as S-2366, the effect of peptide-(390-404) and peptide-(317-331) on the time course of inhibition of APC by a larger pseudosubstrate, recombinant mutant (Arg^358)-α1 -antitrypsin (α1 -AT) was evaluated. […] Heeb et al., J. Biol. Chem. 265:2365-2369 (1990).
Kinetic studies of inhibition of APC were performed with the higher affinity mutant α1 -AT pseudo-substrate. […] The change in absorbance was measured over time as described in the amidolytic assay. […]
Since the number of amino acid residues involved in protease-protease inhibitor complexes is likely to be higher than the number of residues of APC involved in the cleavage of a small chromogenic substrate such as S-2366, the effect of anti-(390-404) antibody on the time course of inhibition of APC by a larger pseudo-substrate, such as recombinant mutant (Arg^358)-α1 -AT was evaluated. […] The change in absorbance was measured over time as described in the amidolytic assay. […]

[2] = molecular target: T1, APC; details: Heeb et al. 1990; cited from earlier work

- calculated half-life for APC [1]: 2 min
Substance: recombinant (Arg^358)α1 -AT: recombinant mutant α1-antitrypsin with Met358 substituted by Arg, pseudosubstrate inhibitor of APC (Transgene)
- increase in the association rate for APC by substitution of Met358 by Arg [2]: over 4400 fold
